Key:
human PD-L1 = target: T1, human PD-L1 (human, UniProt Q9NZQ7 19-290); test: flow cytometry on CHO-K1.hPD-L1 cells, anti-FLAG detection
T1 construct: whole, on cells; also called hPD-L1; CHO-K1.hPD-L1
Procedure: CHO-K1.hPD-L1 cells were resuspended in Stain Buffer (PBS, 2% FBS, 0.05% sodium azide) and 1E5 cells/well were transferred to a 96-well V-bottom plate and centrifuged. Cells were suspended in 100 μL/well serial diluted VHH or anti-PD-L1 antibody (atezolizumab) in Stain Buffer and incubated for 30 minutes at 4° C. VHH binding was detected by resuspending the samples subsequently in 100 μL/well mouse a-FLAG antibody (Sigma: F1804) and detected with PE-labeled goat anti-mouse IgG (Jackson ImmunoResearch: 115-116-071) as detection antibody and 5 nM TOPRO3 (Molecular Probes: T3605) as dead dye. Between each step, the cells were collected via centrifugation for 5 minutes at 200×g and washed three times with 100 μL/well Stain Buffer.

human PD-1 = target: T2, human PD-1 (human, UniProt Q15116 25-288); test: flow cytometry on CHO-K1.hPD-1 cells, anti-FLAG detection
T2 construct: whole, on cells; also called hPD-1; CHO-K1.hPD-1
T2 sequence (Q15116 25-288): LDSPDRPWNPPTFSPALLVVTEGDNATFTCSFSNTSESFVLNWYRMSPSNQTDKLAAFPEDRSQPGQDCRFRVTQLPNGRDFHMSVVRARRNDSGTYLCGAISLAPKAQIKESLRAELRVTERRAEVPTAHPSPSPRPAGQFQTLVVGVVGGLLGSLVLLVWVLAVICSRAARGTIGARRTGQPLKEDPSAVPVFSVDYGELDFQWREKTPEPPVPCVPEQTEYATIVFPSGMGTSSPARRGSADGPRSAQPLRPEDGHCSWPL

T1 sequence (Q9NZQ7 19-290): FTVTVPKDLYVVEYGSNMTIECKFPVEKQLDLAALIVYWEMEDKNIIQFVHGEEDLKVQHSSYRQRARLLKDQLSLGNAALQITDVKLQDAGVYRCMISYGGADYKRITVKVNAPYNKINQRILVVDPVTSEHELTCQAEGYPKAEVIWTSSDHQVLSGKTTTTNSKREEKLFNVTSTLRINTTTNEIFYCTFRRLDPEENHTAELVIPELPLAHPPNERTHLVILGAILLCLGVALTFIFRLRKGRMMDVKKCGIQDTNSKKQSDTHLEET

| Binder | binding result (human PD-L1) | binding result (human PD-1) |
| --- | --- | --- |
| α-PD-L1 VHH 2 (VHH) VHH: EVQLVESGGGLKQAGGSLRLSCTASARASTYIAMAWFRRTPGKAREFVAAITWSGGHTTYADSMKGRFTISRDNAKNTVYLHLNALQPEDAGVYYCAANQRNTVGPSEGAYPYWGQGTLVTVSS | binds |  |
| α-PD-L1 VHH 3 (VHH) VHH: EVQLVESGGGLVQPGGSLRLSCAASGRTLSNHAMHWFRQAPGKEREFVSAITWSDGETYYEDSVKGRFTISRDNAKDTAYLEMQSLKPEDTAVYYCAAKMGGPTSIPGLVEYWGQGTLVTVSS | binds |  |

The next lines start with the values.

| binding result (human PD-L1) | binding result (human PD-1) | Binder |
| --- | --- | --- |
|  | binds | α-PD-1 VHH (VHH, also called anti-PD-1 VHH) VHH: EVQLVESGGGLVQAGDSLRLSCVASGRTFSSYHMGWFRQAPGKEREFVAAIPRSGSNIGYSAFVKDRGTISRDNAKNTVYLQINNLAPDDTAVYYCAAKSAAGYYSGVVFTADYDYTYWGQGTLVTVSS |
| binds |  | α-PD-L1 VHH (VHH, also called anti-PD-L1 VHH) VHH: EVQLVESGGGLVQAGGSLSVSCAPSGRTFSNYAMGWFRQAPGKEREFVARISGGGGYTAYADSVKGRFTIARDNAKNTVYLQMNSLKPEDTAVYYCAAGSIDSRQPYDSTRRYDYWGQGTLVTVSS |

— patent US20250034258A1 (Merck Sharp & Dohme, published 2025)
